# Assay results from FireProtDB (doi:10.1021/acs.biochem.7b00833).
# B1: SCO1 protein homolog wild type, P54178 (protein)
# chain: MKVIKGLTAGLIFLFLCACGGQQIKDPLNYEVEPFTFQNQDGKNVSLESLKGEVWLADFIFTNCETICPPMTAHMTDLQKKLKAENIDVRIISFSVDPENDKPKQLKKFAANYPLSFDNWDFLTGYSQSEIEEFALKSFKAIVKKPEGEDQVIHQSSFYLVGPDGKVLKDYNGVENTPYDDIISDVKSASTLK
# Settings: Bacillus subtilis (strain 168); pH 7; 25 °C; Urea; CD; Sodium Phosphate Buffer; whole UniProt chain shown
protein,measurement,value
B1,denaturant m value,3.51 kcal/mol/M
same,denaturant midpoint (higher = more stable),2.91 M
same,unfolding free energy,9.93 kcal/mol
